Columns and labels:
Experiment in all cases: cell-based or functional assay
[1] = molecular target: HIV-1 Env of isolate PVO.4 (clade B pseudovirus) (HIV-1)
[2] = molecular target: HIV-1 Env of isolate ZM233 (clade C pseudovirus) (HIV-1)
[3] = molecular target: HIV-1 JR-FL Env E168K (HIV-1 JR-FL)
[4] = molecular target: MuLV envelope protein (control pseudovirus) (MuLV)
[5] = molecular target: HIV-1 APV6 envelope glycoprotein (Env) on pseudovirus (HIV-1 isolate APV6 (clade B))
[6] = molecular target: HIV-1 MGRM-C-028 envelope glycoprotein (Env) on pseudovirus (HIV-1 isolate MGRM-C-028 (clade C))
[7] = molecular target: HIV-1 MGRM-D-018 envelope glycoprotein (Env) on pseudovirus (HIV-1 isolate MGRM-D-018 (clade D))
[8] = molecular target: HIV-1 92UG005 Env (HIV-1)
[9] = molecular target: HIV-1 93IN905 Env (HIV-1)
[10] = molecular target: HIV-1 93UG077 Env (HIV-1)
[11] = molecular target: HIV-1 MGRM-C-026 Env (HIV-1)
[12] = molecular target: HIV-1 MGRM-D-001 Env (HIV-1)
aMLV envelope (aMLV) = molecular target: aMLV envelope (aMLV)
[13] = molecular target: HIV-1 92UG024 Env (pseudovirus) (HIV-1 isolate 92UG024 (clade D))
[14] = molecular target: HIV-1 93UG077 Env (pseudovirus) (HIV-1 isolate 93UG077 (clade A))
[15] = molecular target: HIV-1 APV13 Env (pseudovirus) (HIV-1 isolate APV13 (clade B))
[16] = molecular target: HIV-1 APV17 Env (pseudovirus) (HIV-1 isolate APV17 (clade B))
[17] = molecular target: HIV-1 APV6 Env (pseudovirus) (HIV-1 isolate APV6 (clade B))
[18] = molecular target: HIV-1 JRFL Env (pseudovirus) (HIV-1 isolate JRFL (clade B))
[19] = molecular target: HIV-1 Env of isolate JRFL (HIV-1)
[20] = molecular target: HIV-1 Env of isolate MG RM-D-018 (clade D), on pseudovirus (HIV-1)
[21] = molecular target: HIV-1 Env of isolate MG RM-D-022 (clade D), on pseudovirus (HIV-1)
[22] = molecular target: HIV-1 Env of isolate MGRM-Chronic-B-011 (HIV-1)
[23] = molecular target: HIV-1 Env of isolate MGRM-F1-022 (clade F pseudovirus) (HIV-1)
[24] = molecular target: HIV-1 Env of isolate MGRM-F1-023 (clade F pseudovirus) (HIV-1)
[25] = molecular target: HIV-1 Env of pseudovirus 92UG037 (subtype A) (HIV-1)
[26] = molecular target: HIV-1 Env of pseudovirus MGRM-A-001 (subtype A) (HIV-1)
[27] = molecular target: HIV-1 Env of pseudovirus MGRM-A-002 (subtype A) (HIV-1)
[28] = molecular target: HIV-1 Env of isolate MG RM-D-024 (HIV-1)
[29] = molecular target: HIV-1 Env of isolate MG RM-D-028 (HIV-1)
[30] = molecular target: HIV-1 Env of isolate MGRM-F1-010 (HIV-1)
[31] = molecular target: HIV-1 Env of pseudovirus MGRM-AG-001 (subtype AG) (HIV-1)
[32] = molecular target: HIV-1 Env of pseudovirus MGRM-AG-002 (subtype AG) (HIV-1)
[33] = molecular target: HIV-1 Env of pseudovirus MGRM-AG-003 (subtype AG) (HIV-1)
[34] = molecular target: HIV-1 Env of pseudovirus MGRM-AG-005 (subtype AG) (HIV-1)
[35] = molecular target: HIV-1 Env of pseudovirus MGRM-AG-008 (subtype AG) (HIV-1)

Chain of 1443_C16 (PG16) (TCN-116) (antibody) (VH): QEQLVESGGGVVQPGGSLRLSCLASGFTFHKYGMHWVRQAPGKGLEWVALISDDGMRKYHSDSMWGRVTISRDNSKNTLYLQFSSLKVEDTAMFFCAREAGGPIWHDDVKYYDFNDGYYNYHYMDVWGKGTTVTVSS
Chain of 1443_C16 (PG16) (TCN-116) (antibody) (VL): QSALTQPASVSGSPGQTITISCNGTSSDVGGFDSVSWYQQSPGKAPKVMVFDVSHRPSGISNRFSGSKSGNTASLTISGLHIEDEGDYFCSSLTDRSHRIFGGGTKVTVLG

## 1443_C16 (PG16) (TCN-116) (antibody)
[1]
  IC50 (neutralization, TZM-bl pseudovirus assay): 12.3 µg/mL
[2]
  IC50 (neutralization, TZM-bl pseudovirus assay): < 0.01 µg/mL
[3]
  IC50 (ug/ml), pseudovirus neutralization, TZM-bl assay: 0.006 µg/mL
[4]
  IC50 (neutralization, TZM-bl pseudovirus assay): > 25 µg/mL

## 1496_C09 (PG9) (TCN-109) (antibody)
[5]
  neutralization IC50: 0.214 µg/mL
  neutralization IC80: 1.13 µg/mL
  neutralization IC90: 3.21 µg/mL
  neutralization IC95: 9.65 µg/mL
[6]
  neutralization IC50: 0.121 µg/mL
  neutralization IC80: 0.645 µg/mL
  neutralization IC90: 1.65 µg/mL
  neutralization IC95: 3.71 µg/mL
[7]
  neutralization IC50: 0.0444 µg/mL
  neutralization IC80: 0.18 µg/mL
  neutralization IC90: 0.43 µg/mL
  neutralization IC95: 1.05 µg/mL

## 4877_D15 (PGT-122) (antibody)
[8]
  Neutralization by PGT-122, IC50: > 10 µg/mL
  Neutralization by PGT-122, IC80: > 10 µg/mL
  Neutralization by PGT-122, IC90: > 10 µg/mL
  Neutralization by PGT-122, IC95: > 10 µg/mL
[9]
  Neutralization by PGT-122, IC50: 0.0138 µg/mL
  Neutralization by PGT-122, IC80: 0.0505 µg/mL
  Neutralization by PGT-122, IC90: 0.108 µg/mL
  Neutralization by PGT-122, IC95: 0.217 µg/mL
[10]
  Neutralization by PGT-122, IC50: 0.191 µg/mL
  Neutralization by PGT-122, IC80: 0.931 µg/mL
  Neutralization by PGT-122, IC90: 2.1 µg/mL
  Neutralization by PGT-122, IC95: 3.88 µg/mL
[11]
  Neutralization by PGT-122, IC50: 0.0089 µg/mL
  Neutralization by PGT-122, IC80: 0.037 µg/mL
  Neutralization by PGT-122, IC90: 0.0849 µg/mL
  Neutralization by PGT-122, IC95: 0.181 µg/mL
[12]
  Neutralization by PGT-122, IC50: 0.867 µg/mL
  Neutralization by PGT-122, IC80: 4.48 µg/mL
  Neutralization by PGT-122, IC90: > 10 µg/mL
  Neutralization by PGT-122, IC95: > 10 µg/mL
aMLV envelope (aMLV)
  Neutralization by PGT-122, IC50: > 10 µg/mL
  Neutralization by PGT-122, IC80: > 10 µg/mL
  Neutralization by PGT-122, IC90: > 10 µg/mL
  Neutralization by PGT-122, IC95: > 10 µg/mL

## 5123_A06 (PGT-125) (antibody)
[13]
  Neutralization by PGT-125, IC50: > 10 µg/mL
  Neutralization by PGT-125, IC80: > 10 µg/mL
  Neutralization by PGT-125, IC90: > 10 µg/mL
  Neutralization by PGT-125, IC95: > 10 µg/mL
[14]
  Neutralization by PGT-125, IC50: 0.0262 µg/mL
  Neutralization by PGT-125, IC80: 0.0926 µg/mL
  Neutralization by PGT-125, IC90: 0.206 µg/mL
  Neutralization by PGT-125, IC95: 0.487 µg/mL
[15]
  Neutralization by PGT-125, IC50: 0.0128 µg/mL
  Neutralization by PGT-125, IC80: 0.0414 µg/mL
  Neutralization by PGT-125, IC90: 0.0821 µg/mL
  Neutralization by PGT-125, IC95: 0.154 µg/mL
[16]
  Neutralization by PGT-125, IC50: 7.31 µg/mL
  Neutralization by PGT-125, IC80: > 10 µg/mL
  Neutralization by PGT-125, IC90: > 10 µg/mL
  Neutralization by PGT-125, IC95: > 10 µg/mL
[17]
  Neutralization by PGT-125, IC50: 0.0359 µg/mL
  Neutralization by PGT-125, IC80: 0.133 µg/mL
  Neutralization by PGT-125, IC90: 0.288 µg/mL
  Neutralization by PGT-125, IC95: 0.597 µg/mL
[18]
  Neutralization by PGT-125, IC50: 0.0156 µg/mL
  Neutralization by PGT-125, IC80: 0.0462 µg/mL
  Neutralization by PGT-125, IC90: 0.0873 µg/mL
  Neutralization by PGT-125, IC95: 0.157 µg/mL

## PGV04 (antibody)
[19]
  IC50 (µg/mL), pseudovirus neutralization: 0.032 µg/mL
[20]
  IC50 (µg/mL), pseudovirus neutralization: 17.5 µg/mL
[21]
  IC50 (µg/mL), pseudovirus neutralization: > 50 µg/mL
[22]
  IC50 (µg/mL), pseudovirus neutralization: 0.497 µg/mL
[23]
  IC50 (µg/mL), pseudovirus neutralization: 0.072 µg/mL
[24]
  IC50 (µg/mL), pseudovirus neutralization: 0.171 µg/mL
[25]
  IC50, pseudovirus neutralization: 0.145 µg/mL
[26]
  IC50, pseudovirus neutralization: 6.78 µg/mL
[27]
  IC50, pseudovirus neutralization: 0.093 µg/mL

## VRC01 (antibody)
[28]
  IC50: 0.366 µg/mL
[29]
  IC50: 0.377 µg/mL
[30]
  IC50: 0.097 µg/mL
[31]
  IC50, pseudovirus neutralization: 0.228 µg/mL
[32]
  IC50, pseudovirus neutralization: 0.95 µg/mL
[33]
  IC50, pseudovirus neutralization: 0.043 µg/mL
[34]
  IC50, pseudovirus neutralization: 0.091 µg/mL
[35]
  IC50, pseudovirus neutralization: 0.124 µg/mL

— patent publication US20250320281A1
